Assay results published in article PMC11255334, “Acetyl-CoA synthetase activity is enzymatically regulated by lysine acetylation using acetyl-CoA or acetyl-phosphate as donor molecule” (Nature Communications, 2024).

T1: AcsA from Chloroflexota bacterium (Chloroflexota bacterium, UniProt Z9YKO5Y7U4)
T1 construct: monomer in solution and crystal; expression and tag not described; His476 found phosphorylated
T1 sequence (Z9YKO5Y7U4 9-657): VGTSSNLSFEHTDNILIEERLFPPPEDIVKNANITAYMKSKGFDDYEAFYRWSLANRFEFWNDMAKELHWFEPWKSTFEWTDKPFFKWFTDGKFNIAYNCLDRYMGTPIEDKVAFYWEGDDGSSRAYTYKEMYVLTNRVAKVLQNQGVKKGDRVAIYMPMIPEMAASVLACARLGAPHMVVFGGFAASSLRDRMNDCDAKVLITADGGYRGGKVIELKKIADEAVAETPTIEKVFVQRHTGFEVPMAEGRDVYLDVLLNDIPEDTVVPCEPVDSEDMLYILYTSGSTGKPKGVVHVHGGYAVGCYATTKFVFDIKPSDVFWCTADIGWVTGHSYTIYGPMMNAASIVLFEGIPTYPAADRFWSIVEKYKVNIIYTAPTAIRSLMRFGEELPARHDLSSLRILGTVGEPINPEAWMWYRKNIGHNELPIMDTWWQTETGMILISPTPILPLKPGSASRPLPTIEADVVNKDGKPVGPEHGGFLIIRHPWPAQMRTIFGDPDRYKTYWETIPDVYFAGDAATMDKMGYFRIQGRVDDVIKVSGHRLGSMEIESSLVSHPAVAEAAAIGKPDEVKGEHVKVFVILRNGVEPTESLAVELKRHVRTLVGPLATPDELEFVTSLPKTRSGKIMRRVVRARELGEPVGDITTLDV

T2: AcsA E473A (Bacillus subtilis, UniProt P39062 1-572, E473A)
T2 construct: AcsA, Bacillus subtilis, UniProt P39062, with E473A
T2 sequence (looked up): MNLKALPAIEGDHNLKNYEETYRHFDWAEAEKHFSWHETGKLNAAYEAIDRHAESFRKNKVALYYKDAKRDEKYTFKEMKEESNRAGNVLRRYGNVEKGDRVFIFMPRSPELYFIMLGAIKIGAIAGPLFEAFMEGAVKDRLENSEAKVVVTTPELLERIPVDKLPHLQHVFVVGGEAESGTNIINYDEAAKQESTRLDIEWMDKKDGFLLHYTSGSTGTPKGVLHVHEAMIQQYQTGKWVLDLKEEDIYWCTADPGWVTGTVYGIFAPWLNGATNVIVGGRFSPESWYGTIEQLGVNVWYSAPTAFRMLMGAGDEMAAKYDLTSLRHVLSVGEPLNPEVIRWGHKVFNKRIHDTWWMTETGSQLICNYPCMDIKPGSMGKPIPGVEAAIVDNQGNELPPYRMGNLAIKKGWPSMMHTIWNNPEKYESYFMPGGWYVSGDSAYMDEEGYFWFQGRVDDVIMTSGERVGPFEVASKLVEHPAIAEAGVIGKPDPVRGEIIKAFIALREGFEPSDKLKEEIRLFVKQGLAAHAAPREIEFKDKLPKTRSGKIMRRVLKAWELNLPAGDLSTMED

T3: AcsA V477A (Bacillus subtilis, UniProt P39062 1-572, V477A)
T3 construct: AcsA, Bacillus subtilis, UniProt P39062, with V477A
T3 sequence (looked up): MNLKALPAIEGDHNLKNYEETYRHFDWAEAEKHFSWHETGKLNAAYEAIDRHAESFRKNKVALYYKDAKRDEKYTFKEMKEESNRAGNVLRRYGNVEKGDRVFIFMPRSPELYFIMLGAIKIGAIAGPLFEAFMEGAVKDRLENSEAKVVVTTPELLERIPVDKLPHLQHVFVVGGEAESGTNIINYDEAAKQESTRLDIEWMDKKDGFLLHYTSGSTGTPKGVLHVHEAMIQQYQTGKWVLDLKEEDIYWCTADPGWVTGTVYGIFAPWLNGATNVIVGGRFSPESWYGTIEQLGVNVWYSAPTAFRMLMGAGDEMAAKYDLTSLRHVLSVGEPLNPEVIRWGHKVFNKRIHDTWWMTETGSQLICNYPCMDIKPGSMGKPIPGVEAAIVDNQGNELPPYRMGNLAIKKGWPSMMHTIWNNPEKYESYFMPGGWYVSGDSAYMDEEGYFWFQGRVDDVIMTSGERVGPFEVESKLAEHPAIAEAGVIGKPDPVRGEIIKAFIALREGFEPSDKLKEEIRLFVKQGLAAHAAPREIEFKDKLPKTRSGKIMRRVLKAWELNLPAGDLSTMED

T4: AcsA K549R (Bacillus subtilis, UniProt P39062 1-572, K549R)
T4 construct: AcsA, Bacillus subtilis, UniProt P39062, with K549R; also called non-acetylated mutant AcsA K549R
T4 sequence (looked up): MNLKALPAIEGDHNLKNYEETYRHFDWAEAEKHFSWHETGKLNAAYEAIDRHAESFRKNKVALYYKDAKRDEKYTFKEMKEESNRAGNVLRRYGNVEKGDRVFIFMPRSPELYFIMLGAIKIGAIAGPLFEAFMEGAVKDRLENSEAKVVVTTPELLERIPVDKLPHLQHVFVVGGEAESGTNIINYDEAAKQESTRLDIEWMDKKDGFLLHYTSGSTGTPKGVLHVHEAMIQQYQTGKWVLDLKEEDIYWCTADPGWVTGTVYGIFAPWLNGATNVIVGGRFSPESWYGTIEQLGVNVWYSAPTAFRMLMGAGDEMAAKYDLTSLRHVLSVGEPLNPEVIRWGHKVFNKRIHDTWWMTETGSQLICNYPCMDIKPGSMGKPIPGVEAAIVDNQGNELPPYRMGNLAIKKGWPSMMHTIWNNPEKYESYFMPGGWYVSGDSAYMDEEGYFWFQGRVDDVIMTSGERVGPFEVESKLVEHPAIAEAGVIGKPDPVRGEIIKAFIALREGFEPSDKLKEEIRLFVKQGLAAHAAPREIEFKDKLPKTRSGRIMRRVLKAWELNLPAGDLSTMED

T5: AcsA K549Q (Bacillus subtilis, UniProt P39062 1-572, K549Q)
T5 construct: AcsA, Bacillus subtilis, UniProt P39062, with K549Q; also called acetylation-mimetic mutant AcsA K549Q
T5 sequence (looked up): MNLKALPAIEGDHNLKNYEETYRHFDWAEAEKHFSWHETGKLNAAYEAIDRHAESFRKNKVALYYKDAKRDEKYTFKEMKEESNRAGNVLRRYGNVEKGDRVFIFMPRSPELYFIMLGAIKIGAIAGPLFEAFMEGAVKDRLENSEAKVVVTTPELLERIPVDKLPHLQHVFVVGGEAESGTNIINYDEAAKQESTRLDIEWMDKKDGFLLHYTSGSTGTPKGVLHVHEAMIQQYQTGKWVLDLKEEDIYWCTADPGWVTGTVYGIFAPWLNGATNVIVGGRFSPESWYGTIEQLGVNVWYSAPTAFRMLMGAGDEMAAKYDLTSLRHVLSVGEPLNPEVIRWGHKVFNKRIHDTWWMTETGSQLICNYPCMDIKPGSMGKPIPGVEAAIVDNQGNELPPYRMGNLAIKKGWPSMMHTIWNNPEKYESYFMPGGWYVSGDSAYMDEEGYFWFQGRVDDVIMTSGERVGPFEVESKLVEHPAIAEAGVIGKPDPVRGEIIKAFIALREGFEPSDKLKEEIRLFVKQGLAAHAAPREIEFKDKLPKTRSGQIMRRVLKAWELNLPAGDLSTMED


Legend:
[1] = biological target: T1, AcsA from Chloroflexota bacterium; assay: X-ray crystallography; assay type: binding; conditions: product of the first half-reaction; thioester-forming conformation
[2] = biological target: T2, AcsA E473A; assay: SEC; analytical SEC of equimolar AcsA and AcuA (wild type or mutants), incubated 30 min at room temperature, Superdex 200 10/300 GL, 50 mM Tris/HCl pH 8, 50 mM KCl, 2 mM β-mercaptoethanol; 100 µl of 50–100 µM; without ligand or with a tenfold molar excess of CoA or AcP alone; conditions: both partners purified
[3] = biological target: T3, AcsA V477A; assay: as above; conditions: both partners purified
[4] = biological target: T4, AcsA K549R; assay: as above; conditions: both partners purified
[5] = biological target: T5, AcsA K549Q; assay: as above; conditions: both partners purified
[6] = biological target: Bacillus subtilis AMP-forming acetyl-CoA synthetase AcsA (Bacillus subtilis) (UniProt P39062); assay: as above

binding result [2]	binding result [3]	binding result [4]	binding result [5]	stoichiometry N (AcuA per AcsA (2:2)) [6]	Molecule	X-ray crystallography [1]
					CC(=O)OP(=O)(O)OC[C@H]1O[C@@H](n2cnc3c(N)ncnc32)[C@H](O)[C@@H]1O [acetyl-AMP]	structure solved in complex with acetyl-AMP, i.e. the product of the first half-reaction
binds	binds	binds	binds	1	Bacillus subtilis acetyltransferase AcuA (enzyme, UniProt P39065 1-210, looked up, GNAT-related lysine acetyltransferase AcuA, Bacillus subtilis, UniProt P39065; synthetic gene codon optimized for E. coli; also called AcuA wildtype; AcuA WT; source: E. coli BL21 (DE3), pET45b(+), purified (HisTrap FF, Ni2+)) MEHHKTYHSANIKTATGSLLIEGPVSPEDLAGYEFHKDLTAFRPPREQHEALVDIAGLPEGRIIIARDGRTIVGYVTYLYPDPLERWSEGNMEDLIELGAIEVAPDYRGCAVGKTLLTVSMMDEQMENYIVMTTEYYWHWDLKGMKKDVWEYRKIMEKMMNAGGLVWFATDEPEISSHPANCLMARIGKNVSQESIEQFDRLRFYHRYMY	
